T1: Rat cKIT D1-5, C-terminal mFc (rat)
T1 construct: also called rat cKIT-mFc
T1 chain: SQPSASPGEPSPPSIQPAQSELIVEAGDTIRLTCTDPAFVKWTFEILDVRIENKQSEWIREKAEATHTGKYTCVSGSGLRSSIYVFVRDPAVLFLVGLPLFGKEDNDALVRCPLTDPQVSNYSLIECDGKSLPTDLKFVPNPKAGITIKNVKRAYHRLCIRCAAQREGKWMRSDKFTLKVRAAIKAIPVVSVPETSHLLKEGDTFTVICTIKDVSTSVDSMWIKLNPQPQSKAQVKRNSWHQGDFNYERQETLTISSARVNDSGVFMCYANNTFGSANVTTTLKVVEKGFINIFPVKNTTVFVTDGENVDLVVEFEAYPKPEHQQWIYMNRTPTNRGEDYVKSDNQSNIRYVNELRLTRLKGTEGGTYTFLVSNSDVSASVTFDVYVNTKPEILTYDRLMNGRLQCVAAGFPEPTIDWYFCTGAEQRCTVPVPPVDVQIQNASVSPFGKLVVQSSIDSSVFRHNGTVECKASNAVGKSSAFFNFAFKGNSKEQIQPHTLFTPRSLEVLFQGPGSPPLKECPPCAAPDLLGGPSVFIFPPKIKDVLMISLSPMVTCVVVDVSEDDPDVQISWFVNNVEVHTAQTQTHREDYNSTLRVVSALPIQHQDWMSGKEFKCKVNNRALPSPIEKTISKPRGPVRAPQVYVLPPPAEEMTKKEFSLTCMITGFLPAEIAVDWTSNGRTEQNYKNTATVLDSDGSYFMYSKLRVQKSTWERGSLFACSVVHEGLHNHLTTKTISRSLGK

T2: Mouse cKIT ECD, C-terminal 6x His (Sino Biological Inc, Catalog number 50530-M08H) (mouse, UniProt P05532 25-527)
T2 construct: extracellular domain
T2 sequence: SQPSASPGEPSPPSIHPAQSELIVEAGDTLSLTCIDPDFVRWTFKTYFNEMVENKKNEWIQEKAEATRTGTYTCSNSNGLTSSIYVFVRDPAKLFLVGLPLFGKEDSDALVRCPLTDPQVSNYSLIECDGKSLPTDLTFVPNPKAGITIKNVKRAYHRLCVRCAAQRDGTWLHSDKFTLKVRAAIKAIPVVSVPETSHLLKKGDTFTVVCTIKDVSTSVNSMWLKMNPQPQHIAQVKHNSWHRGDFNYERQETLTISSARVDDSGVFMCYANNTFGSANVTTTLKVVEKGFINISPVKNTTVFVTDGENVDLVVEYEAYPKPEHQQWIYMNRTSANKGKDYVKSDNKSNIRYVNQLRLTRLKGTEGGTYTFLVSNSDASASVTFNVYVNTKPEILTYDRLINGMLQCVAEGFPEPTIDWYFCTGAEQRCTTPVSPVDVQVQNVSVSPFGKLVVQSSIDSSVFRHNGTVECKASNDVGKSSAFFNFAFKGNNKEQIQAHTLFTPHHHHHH

T3: Cynomolgus monkey cKIT D1-5 (cynomolgus monkey, UniProt P10721 26-524 (human entry))
T3 construct: also called cyno cKIT ECD
T3 chain: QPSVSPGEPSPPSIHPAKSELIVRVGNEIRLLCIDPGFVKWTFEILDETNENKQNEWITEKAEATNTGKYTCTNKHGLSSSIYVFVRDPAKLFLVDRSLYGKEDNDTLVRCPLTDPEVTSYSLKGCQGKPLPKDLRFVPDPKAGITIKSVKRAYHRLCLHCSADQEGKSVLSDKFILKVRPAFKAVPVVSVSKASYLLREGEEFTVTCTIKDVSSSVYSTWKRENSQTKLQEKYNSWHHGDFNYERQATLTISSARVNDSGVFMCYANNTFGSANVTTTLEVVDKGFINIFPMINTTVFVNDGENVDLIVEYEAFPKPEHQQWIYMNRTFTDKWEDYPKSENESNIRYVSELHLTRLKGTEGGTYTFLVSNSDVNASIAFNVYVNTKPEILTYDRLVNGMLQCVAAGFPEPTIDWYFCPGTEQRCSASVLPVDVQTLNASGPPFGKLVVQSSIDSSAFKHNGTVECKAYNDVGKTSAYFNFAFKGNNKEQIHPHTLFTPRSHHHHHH

B1: Anti-cKIT Ab5 (antibody, human IgG1, lambda, V domains shown)
VH: QVQLVQSGAEVKKPGESLKISCKGSGYSFTNYWIAWVRQMPGKGLEWMGIIYPSNSYTLYSPSFQGQVTISADKSISTAYLQWSSLKASDTAMYYCARVPPGGSISYPAFDHWGQGTLVTVSS
VL: DIELTQPPSVSVSPGQTASITCSGDNIGSIYASWYQQKPGQAPVLVIYRDNKRPSGIPERFSGSNSGNTATLTISGTQAEDEADYYCSVTDMEQHSVFGGGTKLTVLG
notes: Full-length human IgG1, lambda light chain
B2: Anti-cKIT Ab4 (antibody, human IgG1, lambda, V domains shown)
VH: QVQLQQSGPGLVKPSQTLSLTCAISGDSVSTNSAAWNWIRQSPSRGLEWLGRIYYRSQWLNDYAVSVKSRITINPDTSKNQFSLQLNSVTPEDTAVYYCARQLTYPYTVYHKALDVWGQGTLVTVSS
VL: DIELTQPPSVSVSPGQTASITCSGDNLGDQYVSWYQQKPGQAPVLVIYDDTDRPSGIPERFSGSNSGNTATLTISGTQAEDEADYYCQSTDSKSVVFGGGTKLTVLG
notes: Full-length human IgG1, lambda light chain; also called IgG control for J4
B3: Anti-cKIT Ab1 (antibody, human IgG1, kappa, V domains shown)
VH: QVQLVQSGAEVKKPGSSVKVSCKASGGTFSSYAISWVRQAPGQGLEWMGVIFPAEGAPGYAQKFQGRVTITADESTSTAYMELSSLRSEDTAVYYCARGGYISDFDVWGQGTLVTVSS
VL: DIQMTQSPSSLSASVGDRVTITCRASQSISNYLAWYQQKPGKAPKLLIYDASSLQSGVPSRFSGSGSGTDFTLTISSLQPEDFATYYCQQYYYESITFGQGTKVEIKR
notes: Full-length human IgG1, kappa light chain; also called IgG control for J1
B4: Anti-cKIT Ab2 (antibody, human IgG1, kappa, V domains shown)
VH: QVQLVQSGAEVKKPGSSVKVSCKASGGTFSSHALSWVRQAPGQGLEWMGGIIPSFGTADYAQKFQGRVTITADESTSTAYMELSSLRSEDTAVYYCARGLYDFDYWGQGTLVTVSS
VL: B3 VL with S28D, N31Q, Y32D, T85V, E94L, S95P, I96S
notes: Full-length human IgG1, kappa light chain; also called IgG control for J2
B5: Anti-cKIT Ab3 (antibody, human IgG1, kappa, V domains shown)
VH: B3 VH with V50T, F52G, A54F, A57Q, G59R
VL: B3 VL
notes: Full-length human IgG1, kappa light chain; also called IgG control for J3

Experimental findings from US20190321483A1 (Novartis, published 2019) are described below.

Where a chain is given by its changes, count along the chain named.

T4 sequence (P10721 other isoform, or with tags, fused parts or gaps): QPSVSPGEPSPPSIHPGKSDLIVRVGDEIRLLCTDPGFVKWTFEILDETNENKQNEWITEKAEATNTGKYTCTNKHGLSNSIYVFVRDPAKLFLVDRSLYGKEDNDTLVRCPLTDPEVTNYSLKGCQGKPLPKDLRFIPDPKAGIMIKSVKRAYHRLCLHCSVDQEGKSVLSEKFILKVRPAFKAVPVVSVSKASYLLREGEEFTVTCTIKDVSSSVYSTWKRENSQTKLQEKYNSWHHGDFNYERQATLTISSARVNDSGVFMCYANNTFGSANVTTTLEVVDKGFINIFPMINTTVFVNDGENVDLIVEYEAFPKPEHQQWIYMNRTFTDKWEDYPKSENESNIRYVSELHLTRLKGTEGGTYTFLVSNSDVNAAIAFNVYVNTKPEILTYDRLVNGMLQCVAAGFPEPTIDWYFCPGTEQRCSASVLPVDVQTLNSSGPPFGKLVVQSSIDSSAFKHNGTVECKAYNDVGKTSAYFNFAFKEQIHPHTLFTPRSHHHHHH

The target in the first assay is T1, Rat cKIT D1-5, C-terminal mFc. In words: cross reactivity, Table 6 (Example 4: Biacore SPR, antibody captured, cKIT ECD in solution).
For B1, the binding result is listed as “binds”.
Still for that read-out and setting: for B2 the value was “binds”.

The next assay addresses T2, Mouse cKIT ECD, C-terminal 6x His (Sino …). In words: cross reactivity, Table 6 (Example 4: Biacore SPR, antibody captured by anti-human Fc, cKIT ECD in solution). A general note: In SPR one partner is held on a chip, and binding of the other changes the refractive index at the surface.
B3: the binding result was “no binding”.
On the same count and under the same terms, as for B4, the entry is “no binding”; as for B5, “no binding”.

A further assay concerns the target T1, Rat cKIT D1-5, C-terminal mFc. The assay is described as above.
Take B3: the binding result is reported as “no binding”.
Take B4: the binding result is reported as “no binding”.
On the same count and under the same terms, for B5 the value was “no binding”.

A further assay addresses T4, Human cKIT D1-5 (extracellular domain) (human, UniProt P10721 26-524).
T4 construct: also called human cKIT ECD; full-length cKIT ECD
Kind of assay: 'in SET' by the column head; Example 4 describes Biacore SPR (antibody captured by anti-human Fc, cKIT ECD in solution).
Consider B1, for which the Kd (in general, a measure of binding affinity in units of concentration) came to 0.11 nM.
The same measure, in the same setting: for B2 the value was 2.4 nM; for B3, 0.094 nM.
Turning to B4, the affinity, expressed as Kd, was 0.007 nM.

A further assay has as its target T3, Cynomolgus monkey cKIT D1-5. The description is as above.
In the case of B1, the Kd was 0.18 nM.
On the same count and under the same terms, for B2 the value was 0.14 nM; for B3, 0.17 nM.
The same measure, in the same setting: for B4 the value was 0.01 nM; for B5, 0.052 nM.
